Consider eight molecules from patent US20250042994A1 (HAINAN SIMCERE ZAIMING PHARMACEUTICAL, published 2025).

The target in test [1] is T1, cynomolgus monkey CD19 on peripheral blood B cells (cynomolgus monkey (Macaca fascicularis), UniProt A0A2K5W8L9 20-557).
T1 construct: whole, on cells; also called cynomolgus monkey B cells
T1 sequence: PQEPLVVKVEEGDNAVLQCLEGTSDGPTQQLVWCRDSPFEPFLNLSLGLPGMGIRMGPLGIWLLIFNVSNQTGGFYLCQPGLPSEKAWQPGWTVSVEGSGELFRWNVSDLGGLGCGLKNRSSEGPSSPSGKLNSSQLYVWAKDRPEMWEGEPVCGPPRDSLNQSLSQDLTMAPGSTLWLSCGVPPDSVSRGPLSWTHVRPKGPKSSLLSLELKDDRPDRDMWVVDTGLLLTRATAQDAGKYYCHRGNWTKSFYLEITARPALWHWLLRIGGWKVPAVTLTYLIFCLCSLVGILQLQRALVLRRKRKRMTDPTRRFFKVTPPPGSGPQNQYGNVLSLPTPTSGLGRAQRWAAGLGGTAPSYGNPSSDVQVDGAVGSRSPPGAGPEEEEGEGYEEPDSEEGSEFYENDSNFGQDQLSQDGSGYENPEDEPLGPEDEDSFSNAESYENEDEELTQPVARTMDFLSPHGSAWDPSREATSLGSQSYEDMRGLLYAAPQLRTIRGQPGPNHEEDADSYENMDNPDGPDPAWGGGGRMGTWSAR
As to the kind of experiment: FACS, cynomolgus PBMC, CD20+ B cells. Background: Flow cytometry measures light scatter and fluorescence of single cells or particles in a stream.

The target in test [2] is T2, human CD19 on CHO-K1-human CD19 cells (human, UniProt P15391 20-556).
T2 construct: whole, on cells; also called CHO-K1-human CD19-2C8
T2 sequence (looked up): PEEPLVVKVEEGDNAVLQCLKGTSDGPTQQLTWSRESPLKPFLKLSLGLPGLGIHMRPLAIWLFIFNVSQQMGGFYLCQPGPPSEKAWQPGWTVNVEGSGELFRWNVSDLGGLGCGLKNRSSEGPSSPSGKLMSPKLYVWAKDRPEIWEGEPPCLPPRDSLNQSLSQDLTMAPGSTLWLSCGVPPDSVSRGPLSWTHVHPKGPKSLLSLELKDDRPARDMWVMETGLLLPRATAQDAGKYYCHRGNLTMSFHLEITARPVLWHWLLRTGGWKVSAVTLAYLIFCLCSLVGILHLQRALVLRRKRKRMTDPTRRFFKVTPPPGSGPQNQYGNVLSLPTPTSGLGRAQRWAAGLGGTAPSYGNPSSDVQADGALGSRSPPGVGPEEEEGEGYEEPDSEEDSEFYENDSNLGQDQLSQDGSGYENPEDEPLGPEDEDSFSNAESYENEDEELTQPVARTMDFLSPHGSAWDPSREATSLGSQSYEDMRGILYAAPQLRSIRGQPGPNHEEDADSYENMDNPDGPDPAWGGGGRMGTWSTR
Kind of test: FACS on CHO-K1-human CD19 cells.

Another test has as its target T3, human CD19 on Raji cells (human, UniProt P15391 20-556).
T3 construct: whole, on cells
T3 sequence (looked up): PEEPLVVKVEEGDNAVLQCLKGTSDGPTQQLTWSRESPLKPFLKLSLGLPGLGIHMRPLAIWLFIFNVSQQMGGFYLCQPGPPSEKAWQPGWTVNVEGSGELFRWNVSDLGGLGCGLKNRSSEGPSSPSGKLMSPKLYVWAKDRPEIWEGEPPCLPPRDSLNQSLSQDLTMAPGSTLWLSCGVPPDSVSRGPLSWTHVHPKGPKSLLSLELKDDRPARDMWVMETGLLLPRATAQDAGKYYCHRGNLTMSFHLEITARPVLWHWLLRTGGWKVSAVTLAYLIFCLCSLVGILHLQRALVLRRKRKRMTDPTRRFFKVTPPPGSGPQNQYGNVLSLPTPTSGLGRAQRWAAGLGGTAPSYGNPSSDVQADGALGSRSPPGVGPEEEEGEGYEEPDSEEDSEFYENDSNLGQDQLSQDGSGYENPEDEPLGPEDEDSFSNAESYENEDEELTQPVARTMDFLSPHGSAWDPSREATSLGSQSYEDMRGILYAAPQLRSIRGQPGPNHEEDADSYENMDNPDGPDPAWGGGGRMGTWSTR
As to the kind of experiment: FACS on Raji cells.

For test [3], the target named is T4, monkey CD19 on HEK293T-monkey CD19 cells (monkey).
T4 construct: whole, on cells
As to the kind of experiment: FACS on HEK293T-monkey CD19 cells. In short, it runs like this:
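Antibody binding was read as MFI by flow cytometry and EC50 was taken from curve fitting. Before that, cells at 2×10⁶ cells/ml in PBS with 2% (w/w) BSA were exposed to samples for 2 h on ice and washed. Parental HEK293T cells were tested the same way.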

B1: F3.126.15 (antibody, human IgG1, V domains shown)
VH: QVQLQQPGAELVMPGASVKLSCKASGYTFTSYWMHWVKQRPGQGLEWIGEIDPSDSYTTYNQNFKGKATLTVDISTSTAYIQLSNLTSEDSAVYYCARLTGNYIHYWGQGTTLTVSS
VL: DIVMTQSHKFMSTSVGDRVSITCKASQDVSPAVAWYQQRPGQCPKLLIFSSSYRSTGVPDRFTGSGSGTDFTFTISSVQAEDLAVYYCQQHYSLPLTFGAGTKLELK
notes: human-murine chimeric antibody, human IgG1
On to B1, for which, in test [1], the “Proportion of chimeric antibody positive cells to B cells (%) at 1 nM” value (“Proportion … (%) at 1 nM” for short) came to 16%, the “Proportion of chimeric antibody positive cells to B cells (%) at 10 nM” value (“Proportion … (%) at 10 nM” for short) was 27% and the “Proportion of chimeric antibody positive cells to B cells (%) at 100 nM” value (from here on “Proportion … (%) at 100 nM”) was found to be 49%. In test [2], the EC50 (usually the concentration that produces a half-maximal response) was 2.47 nM and the “Maximum mean fluorescence intensity” value is 56700. In addition, in the test with human CD19 on Raji cells, the EC50 was 1.18 nM and the “Maximum mean fluorescence intensity” value was 30300. In addition, in test [3], the EC50 was 5.57 nM and the “Maximum mean fluorescence intensity” value worked out at 175000.

B2: F4.4.6 (antibody, human IgG1, V domains shown)
VH: QVQLQQSGAELARPGASVKLSCKASGYTFTSYWMQWVKQRPGQGLEWIGAIYPGDGDSRYTQKFKGKATLTADKSSSTAYMQLSSLASEDSAVYYCARSTTTVLGNNFEYWGQGTTLTVSS
VL: QIVLTQSPAIMSALPGEKVTMTCSASSSVSSMHWYQQKSGTSPKRWIYDTSKLASGVPARFSGSGSGTSYSLTISSMEAEDAATYYCQQWSSNPWTFGGGTKLEIK
notes: as for B1
As to B2, in test [1], the “Proportion … (%) at 1 nM” value turned out to be 2%, the “Proportion … (%) at 10 nM” value worked out at 2% and the “Proportion … (%) at 100 nM” value came out at 3%. Moreover, in test [2], the EC50 came to 0.08 nM and the “Maximum mean fluorescence intensity” value stood at 14800. Further, in the test with human CD19 on Raji cells, the response was half-maximal at 0.56 nM (EC50) and the “Maximum mean fluorescence intensity” value amounted to 26000. In test [3], the “Maximum mean fluorescence intensity” value stood at 662.

B3: F4.18.13 (antibody, human IgG1, V domains shown)
VH: QVQLQQSGPELVKPGASVKISCKASGYAFSSFWMNWVKQRPGEGLEWIGRIYPGDGDTNYNGKFKGKATLTADDSSSTAYMQLSSLTSVDSAVYFCAREVIAAVVTTDFDYWGQGTTLTVSS
VL: DIQMTQTTSSLSASLGDRVTISCRTSQDISNYLNWYLQKPDGTVKLLIYYTSGLHSGVPSRFSGSGSGTDYSLTISNLEPEDIATYFCQQGKTLPYTFGGGTKLEIK
notes: as for B1
As for B3, in test [1], the “Proportion … (%) at 1 nM” value was 2%, the “Proportion … (%) at 10 nM” value came out at 8% and the “Proportion … (%) at 100 nM” value was determined as 21%. In test [2], a half-maximal response (EC50) required 0.6 nM and the “Maximum mean fluorescence intensity” value came out at 51600. Moreover, in the test with human CD19 on Raji cells, the EC50 amounted to 1.31 nM and the “Maximum mean fluorescence intensity” value stood at 35200. Also, in test [3], the EC50 stood at 26.2 nM and the “Maximum mean fluorescence intensity” value turned out to be 19700.

B4: F4.22.6 (antibody, human IgG1, V domains shown)
VH: QVQLQQSGPELVKPGASVKISCKASGYAFSSFWMNWVKQRPGQGLEWIGRIYPGDGDTNYNGKFKGKATLTADKSSTTAYMHLSSLTSVDSAVYFCTRSVITAVVDWYFDVWGAGTTVTVSS
VL: QIVLSQSPAILSASPGEKVTLTCRASSSVNFMHWYQQKPGSSPKPWIYATSNLASGAPARFSGSGSGTSYSLTISRVEAEDAAAYYCQQWSSYPIFTFGSGTKLEIK
notes: as for B1
Consider B4, for which, in test [1], the “Proportion … (%) at 1 nM” value turned out to be 2%, the “Proportion … (%) at 10 nM” value worked out at 2% and the “Proportion … (%) at 100 nM” value came out at 12%. Besides, in test [2], the EC50 amounted to 0.1 nM and the “Maximum mean fluorescence intensity” value was found to be 14700. Also, in the test with human CD19 on Raji cells, the EC50 came out at 0.67 nM and the “Maximum mean fluorescence intensity” value worked out at 27300. In addition, in test [3], the EC50 is roughly 129 nM and the “Maximum mean fluorescence intensity” value was 7380.

B5: F4.21.2 (antibody, human IgG1, V domains shown)
VH: QVQLKQSGPGLVQPSQSLSITCTVSGFSLSTYGVHWVRQSPGRGLEWLGVIWIGGTTDYNAAFISRLTISKDNSRGQVFFKMDSLQANDTAIYYCARKGYYKYDGGYYYAMDYWGQGTSVTVSS
VL: DIQMTQSSSYLSVSLGGRVTITCKASDHINNWLAWYQQKPGNAPWLLISGATSLETGVPSRFSGSGSGKDYTLSISSLQTEDVATYYCQQYWSTPLTFGAGTKLELK
notes: as for B1
As for B5, in test [1], the “Proportion … (%) at 1 nM” value was 2%, the “Proportion … (%) at 10 nM” value was determined as 3% and the “Proportion … (%) at 100 nM” value is 18%. For the same molecule, in test [2], the EC50 was 1.02 nM and the “Maximum mean fluorescence intensity” value amounted to 52600. Moreover, in the test with human CD19 on Raji cells, the EC50 is 2.69 nM and the “Maximum mean fluorescence intensity” value amounted to 30800. In test [3], the midpoint of the response, the EC50, lay at 9.1 nM and the “Maximum mean fluorescence intensity” value was 39200.

B6: F4.33.12 (antibody, human IgG1, V domains shown)
VH: QVQLQQSGAELVRPGSSVKISCKGSGYAFSSYWMNWVKQRPGQGLEWIGQIYPGDGDTNYNGKFKGKATLTADKSSSTAYMQLSSLTSEDSAVYFCARAGFYYGSDSSMDYWGQGTSVTVSS
VL: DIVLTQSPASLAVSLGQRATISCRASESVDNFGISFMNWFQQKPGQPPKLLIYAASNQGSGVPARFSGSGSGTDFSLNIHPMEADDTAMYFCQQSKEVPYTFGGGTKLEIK
notes: as for B1
On to B6, for which, in test [1], the “Proportion … (%) at 1 nM” value amounted to 1%, the “Proportion … (%) at 10 nM” value was 1% and the “Proportion … (%) at 100 nM” value was determined as 2%. Further, in test [2], the EC50 amounted to 1.47 nM and the “Maximum mean fluorescence intensity” value is 52500. In the test with human CD19 on Raji cells, the EC50 turned out to be 2.6 nM and the “Maximum mean fluorescence intensity” value amounted to 28200. Further, the “Maximum mean fluorescence intensity” value in test [3] amounted to 50.

B7: F3.121.4 (antibody, human IgG1, V domains shown)
VH: QVQLQQPGAELVVPGTSVKLSCKASGYTFTNYWMHWVKQRPGQGLEWIGEIDPSDNYANYNQEFQGKATLTVDKSSSTAYMQLSSLTSDDSAVYYCARHDGYFGALDYWGQGTSVTVSS
VL: EIVLTQSPTTMAASPGEKITITCSASSSISSNYLHWYQQKPGFSPKFLIYRTSNLASGVPARFSGSGSGTSYSLTIGTMEAEDVATYYCQQASSIPRMFTFGSGTKLEIK
notes: as for B1
With B7, in test [1], the “Proportion … (%) at 1 nM” value stood at 1%, the “Proportion … (%) at 10 nM” value turned out to be 2% and the “Proportion … (%) at 100 nM” value amounted to 2%. Further, in test [2], the EC50 was determined as 0.3 nM and the “Maximum mean fluorescence intensity” value worked out at 53700. Besides, in the test with human CD19 on Raji cells, a half-maximal effect (EC50) was put at 0.31 nM and the “Maximum mean fluorescence intensity” value was found to be 32900. Moreover, the “Maximum mean fluorescence intensity” value in test [3] came to 80.

B8: F3.133.14 (antibody, human IgG1, V domains shown)
VH: QVQLQQPGAELVMPGASVKLSCKASGYTFTNYWMHWVKQRPGQGLEWIGEIDPSDYYANYNQKFKGKATLTVDKSSSTAYMQLSSLTSEDSAVYYCARSHYYANSYNYWGQGTTLTVSS
VL: EIELTQSPTTMAASPGEKITITCSASSSISSDYLHWYQQKPGFSPKLLIYRTSNLASGLPARFSGSGSGTSYSLTIGTMEAEDVATYYCQQGSSVPRMLTFGAGTKLELK
notes: as for B1
As for B8, in test [1], the “Proportion … (%) at 1 nM” value worked out at 1%, the “Proportion … (%) at 10 nM” value worked out at 1% and the “Proportion … (%) at 100 nM” value worked out at 7%. In test [2], a half-maximal response (EC50) required 0.82 nM and the “Maximum mean fluorescence intensity” value was found to be 63100. In the test with human CD19 on Raji cells, the EC50 amounted to 0.93 nM and the “Maximum mean fluorescence intensity” value worked out at 34400. Moreover, in test [3], the EC50 turned out to be 2.47 nM and the “Maximum mean fluorescence intensity” value came out at 138000.
